In patent US20190076505A1 (TORAY INDUSTRIES, published 2019):

target: HLA-DRB1*04 molecules (human); test: cell-based or functional assay

IFN-γ production (ELISA) by CD4-positive T cells against peptide-pulsed PBMCs expressing HLA-DRB1*04, ≥ 1000 pg/mL:
HRSYKARLPLRLFLI [polypeptide consisting of the amino acid sequence represented by SEQ ID NO: 40]
VEYVWRNIILMSLLHLGALYGITL [polypeptide consisting of the amino acid sequence represented by SEQ ID NO: 37]
PLRLFLIIANTMAFQN [polypeptide consisting of the amino acid sequence represented by SEQ ID NO: 41]
HVGWLLVRKHPAVKE [polypeptide consisting of the amino acid sequence represented by SEQ ID NO: 42]
WGVFYYFVSALGITAGAH [polypeptide consisting of the amino acid sequence represented by SEQ ID NO: 38]
AEKLVMFQRRYYKPGLL [polypeptide consisting of the amino acid sequence represented by SEQ ID NO: 43]
NATWLVNSAAHLFGYR [polypeptide consisting of the amino acid sequence represented by SEQ ID NO: 44]
TAGAHRLWSHRSYKARLPLR [polypeptide consisting of the amino acid sequence represented by SEQ ID NO: 39]
ASEYRWHINFTT [polypeptide consisting of the amino acid sequence represented by SEQ ID NO: 45]
